Patent US20140087995A1 (published 2014)
Numbered stars: 1 amine (or outer) side, 2 acyl side, 3 side chain; on linkers, the order of the positions; unused ones are H or OH. Bridge positions count the residues as written; N and C are the ends. Side chains are listed from the residue outwards. Ends that are not written are not given here. * marks the point of attachment. C20 diacid = O=C(O)CCCCCCCCCCCCCCCCCCC(=O)*; γGlu = O=C(O)[C@H](CCC(=O)[*:2])N[*:1]; AEEA = NCCOCCOCC(=O)O

T1: human calcitonin receptor (human, UniProt P30988 25-474)
T1 construct: whole, on cells; also called hCTR; hCT
T1 sequence (looked up): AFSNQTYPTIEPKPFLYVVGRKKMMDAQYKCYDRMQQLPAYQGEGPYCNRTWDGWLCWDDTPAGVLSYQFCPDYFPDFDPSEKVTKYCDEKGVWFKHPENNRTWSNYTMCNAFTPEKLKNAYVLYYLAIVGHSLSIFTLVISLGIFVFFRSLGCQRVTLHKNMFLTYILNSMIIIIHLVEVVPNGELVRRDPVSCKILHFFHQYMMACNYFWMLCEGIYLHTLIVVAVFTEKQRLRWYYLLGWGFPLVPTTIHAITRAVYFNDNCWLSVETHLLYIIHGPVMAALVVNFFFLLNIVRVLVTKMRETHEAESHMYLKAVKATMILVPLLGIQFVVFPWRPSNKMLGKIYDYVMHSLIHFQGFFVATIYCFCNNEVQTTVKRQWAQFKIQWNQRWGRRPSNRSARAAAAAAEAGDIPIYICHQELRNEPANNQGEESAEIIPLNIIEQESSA


What was measured:
[1] = biological target: T1, human calcitonin receptor; assay: SPA radioligand competition (125I-calcitonin), membranes of BHK cells with human calcitonin receptor
Experimental: Membranes were prepared in the following way; the cells were rinsed with PBS and incubated with Versene for approximately 5 min before harvesting. The cells were flushed with PBS and the cell-suspension was centrifuged for 5 min at 1000 rpm. Cells were homogenized (Ultrathurrax) in a buffer containing 20 mM Na-HEPES and 10 mM EDTA (pH 7.4) and centrifuged at 20.000 rpm for 15 min. The resulting pellet was resuspended, homogenized and centrifuged (20.000 rpm, 15 min) in a buffer containing 20 mM Na-HEPES and 0.1 mM EDTA (pH 7.4, buffer 2). The resulting pellet was resuspended in buffer 2 and protein concentration was measured (BCA protein Assay, Pierce). The homogenate was kept cold during the whole procedure. The membranes were kept at −80° C. until use. Assay was performed in a 384 well Optiplate (PerkinElmer) in a total volume of 40 ul. Membranes were mixed with SPA beads. Final concentration of membranes 35 ng/μL final and Final concentration of SPA beads was 0.05 mg/well. Test-compounds were dissolved in DMSO and further diluted in assay buffer (50 mM Hepes, pH 7.4, 1 mM CaCl2, 5 mM MgCl₂, 0.1% OA and 0.02% Tween20). […] The final mixture was incubated for 120 min with shaking at 400 rpm at 25° C. prior to centrifugation (1500 rpm, 10 min). Samples were analyzed on TopCounter™ (Packard). The […] was calculated using (one site binding competition analysis) GraphPad Prism5 as a measure of receptor affinity.

[2] = biological target: T1, human calcitonin receptor; assay: ratio of IC50 at human calcitonin receptor to IC50 at human amylin receptor (SPA competition assays)
Experimental: The resulting pellet was resuspended, homogenized and centrifuged (20.000 rpm, 15 min) in a buffer containing 20 mM Na-HEPES and 0.1 mM EDTA (pH 7.4, buffer 2). The resulting pellet was resuspended in buffer 2 and protein concentration was measured (BCA protein Assay, Pierce). The homogenate was kept cold during the whole procedure. The membranes were kept at −80° C. until use. The assay was performed in a 384 well Optiplate (PerkinElmer) in a total volume of 40 ul. Membranes were mixed with SPA beads. Final concentration of membranes 35 ng/μL final and SPA beads was 0.05 mg/well. Test-compounds were dissolved in DMSO and further diluted in assay buffer (50 mM Hepes, pH 7.4, 1 mM CaCl2, 5 mM MgCl₂, 0.1% OA and 0.02% Tween20). […] The final mixture was incubated with shaking at 400 rpm for 120 min at 25° C. prior to centrifugation (1500 rpm, 10 min). Samples were analyzed on TopCounter™ (Packard). The IC₅₀ was calculated using (one site binding competition analysis) GraphPad Prism5 as a measure of receptor affinity.
Membranes were prepared in the following way; the cells were rinsed with PBS and incubated with Versene for approximately 5 min before harvesting. The cells were flushed with PBS and the cell-suspension was centrifuged for 5 min at 1000 rpm. Cells were homogenized (Ultrathurrax) in a buffer containing 20 mM Na-HEPES and 10 mM EDTA (pH 7.4) and centrifuged at 20.000 rpm for 15 min. The resulting pellet was resuspended, homogenized and centrifuged (20.000 rpm, 15 min) in a buffer containing 20 mM Na-HEPES and 0.1 mM EDTA (pH 7.4, buffer 2). The resulting pellet was resuspended in buffer 2 and protein concentration was measured (BCA protein Assay, Pierce). The homogenate was kept cold during the whole procedure. The membranes were kept at −80° C. until use. Assay was performed in a 384 well Optiplate (PerkinElmer) in a total volume of 40 ul. Membranes were mixed with SPA beads.

Row | IC50 [1] | Ratio hCT/hAmylin binding [2] | Binder
1 | 36.5 nM | 60.7 | K([AEEA-γGlu-C20 diacid])CNTATCATQRLANFLRHSSPNFGAIPSSTNVGRNTY-NH2 (disulfide 2-7; N-terminus assumed; SMILES CC[C@H](C)[C@H](NC(=O)[C@H](C)NC(=O)CNC(=O)[C@H](Cc1ccccc1)NC(=O)[C@H](CC(N)=O)NC(=O)[C@@H]1CCCN1C(=O)[C@H](CO)NC(=O)[C@H](CO)NC(=O)[C@H](Cc1c[nH]cn1)NC(=O)[C@H](CCCNC(=N)N)NC(=O)[C@H](CC(C)C)NC(=O)[C@H](Cc1ccccc1)NC(=O)[C@H](CC(N)=O)NC(=O)[C@H](C)NC(=O)[C@H](CC(C)C)NC(=O)[C@H](CCCNC(=N)N)NC(=O)[C@H](CCC(N)=O)NC(=O)[C@@H](NC(=O)[C@H](C)NC(=O)[C@@H]1CSSC[C@H](NC(=O)[C@@H](N)CCCCNC(=O)COCCOCCNC(=O)CC[C@H](NC(=O)CCCCCCCCCCCCCCCCCCC(=O)O)C(=O)O)C(=O)N[C@@H](CC(N)=O)C(=O)N[C@@H]([C@@H](C)O)C(=O)N[C@@H](C)C(=O)N[C@@H]([C@@H](C)O)C(=O)N1)[C@@H](C)O)C(=O)N1CCC[C@H]1C(=O)N[C@@H](CO)C(=O)N[C@@H](CO)C(=O)N[C@H](C(=O)N[C@@H](CC(N)=O)C(=O)N[C@H](C(=O)NCC(=O)N[C@@H](CCCNC(=N)N)C(=O)N[C@@H](CC(N)=O)C(=O)N[C@H](C(=O)N[C@@H](Cc1ccc(O)cc1)C(N)=O)[C@@H](C)O)C(C)C)[C@@H](C)O, also called compound 78)
2 | 1.53 nM | 32 | K([AEEA-γGlu-C20 diacid])CNTATCATQRLAGFLRHSSPNFGAIPSSTPVGSNTY-NH2 (disulfide 2-7; N-terminus assumed; SMILES CC[C@H](C)[C@H](NC(=O)[C@H](C)NC(=O)CNC(=O)[C@H](Cc1ccccc1)NC(=O)[C@H](CC(N)=O)NC(=O)[C@@H]1CCCN1C(=O)[C@H](CO)NC(=O)[C@H](CO)NC(=O)[C@H](Cc1c[nH]cn1)NC(=O)[C@H](CCCNC(=N)N)NC(=O)[C@H](CC(C)C)NC(=O)[C@H](Cc1ccccc1)NC(=O)CNC(=O)[C@H](C)NC(=O)[C@H](CC(C)C)NC(=O)[C@H](CCCNC(=N)N)NC(=O)[C@H](CCC(N)=O)NC(=O)[C@@H](NC(=O)[C@H](C)NC(=O)[C@@H]1CSSC[C@H](NC(=O)[C@@H](N)CCCCNC(=O)COCCOCCNC(=O)CC[C@H](NC(=O)CCCCCCCCCCCCCCCCCCC(=O)O)C(=O)O)C(=O)N[C@@H](CC(N)=O)C(=O)N[C@@H]([C@@H](C)O)C(=O)N[C@@H](C)C(=O)N[C@@H]([C@@H](C)O)C(=O)N1)[C@@H](C)O)C(=O)N1CCC[C@H]1C(=O)N[C@@H](CO)C(=O)N[C@@H](CO)C(=O)N[C@H](C(=O)N1CCC[C@H]1C(=O)N[C@H](C(=O)NCC(=O)N[C@@H](CO)C(=O)N[C@@H](CC(N)=O)C(=O)N[C@H](C(=O)N[C@@H](Cc1ccc(O)cc1)C(N)=O)[C@@H](C)O)C(C)C)[C@@H](C)O, also called compound 71)
